Molecular target: full-length RABV G (isolate 8743THA) (Rabies lyssavirus, isolate 8743THA, UniProt B2XY12, strain)
Assay: flow cytometry on cells
Settings: one partner purified

B1: RVC20 (human broadly neutralizing monoclonal antibody, recombinant IgG1/kappa) (antibody, V domains shown)
VH: QVQLQESGPGLVKPSQTLSLTCTVSGGSFSSGSYSWNWIRQHPGKGLEWIGYIYYSGSTYYNPSLKSRVTMSVHTSKNQFSLKLNSITAADTAVYYCARGTYSDFWSGSPLDYWGQGTLVTVSS
VL: DIQMTQSPSSLSASVGDRVTITCRASQGISNYLAWFQQKPGKAPKSLIYAASSLQSGVPSRFSGSGSGTDFTLTINSLQPEDFVTYFCQQYDTYPLTFGGGTKVEIK
B1: binds.
